Key:
Format in all cases: biochemical
Set-up in all cases: key: +: Detected; −: Not detected
[1] = Synthesis of N-acylamino acids from various fatty acids using purified acylamino acid synthetase, UPLC-MS detection
Protocol: 0.1 mL of a reaction solution containing 50 mM Tris-HCl, 5 mM amino acid, 5 mM sodium fatty acid (3 mM of sodium palmitate or sodium stearate), 10 mM ATP, 10 mM MgCl2, 1 mM DTT, 200 μg/mL of the purified enzyme, pH 8.0 was shaken at 25° C. for 24 hours. When sodium palmitate or sodium stearate was used, methanol at a final concentration of 10% (v/v) was contained in the reaction solution. As the amino acid, L-Asp was used in AtGH3-6, OsGH3-8, AtGH3-5, AtGH3-12, L-Ile was used in AtJAR1, L-Ala was used in AtGH3-10, SsGH3, L-Glu was used in AtGH3-17, Gly was used in CfHP, L-Lys was used in PsIAAL, and L-Cys was used in PaHP. After completion of the reaction, 0.4 mL of the reaction stop solution (1% (v/v) phosphoric acid, 75% (v/v) methanol) was added, and the mixture was filtrated through the filter followed by being subjected to the UPLC-MS analysis to detect a signal of a molecular weight corresponding to the N-acylamino acid.
The condition for the UPLC-MS analysis is as follows.
(§1) Apparatus: ACQUITY UPLC (Waters)
Column: ACQUITY UPLC BEH C18 1.7 μm 2.1×100 mm Column (Waters), mobile phase A: 0.1% formic acid; mobile phase B: acetonitrile
• Flow rate: 0.6 mL/minute • Injection amount: 2 μL • Column temperature: 40° C. • Ionization method: ESI-negative
As a result of the UPLC-MS analysis, the signal of the molecular weight corresponding to the appropriate N-acylamino acid was confirmed in the reaction solution containing the enzyme in combination with sodium fatty acid shown in Table 7 below.

[2] = Synthesis of N-caprinoyl-amino acid derivative, N-caprinoyl-D-amino acid and N-caprinoyl-peptide using purified acylamino acid synthetase, UPLC-MS detection; conditions: +ATP
Protocol: 0.2 mL of a reaction solution containing 50 mM Tris-HCl, 5 mM amino acid derivative or D-amino acid or peptide, 5 mM sodium caprate, 10 mM ATP, 10 mM MgCl2, 1 mM DTT, 50 μg/mL of the purified enzyme, pH 8.0 was incubated at 25° C. for 24 hours. After completion of the reaction, 0.8 mL of the reaction stop solution (1% (v/v) phosphoric acid, 75% (v/v) methanol) was added, and the mixture was filtrated through the filter followed by being subjected to the UPLC-MS analysis to detect a signal of a molecular weight corresponding to an N-caprinoyl-amino acid derivative, an N-caprinoyl-amino acid or an N-caprinoyl-peptide. A condition for the UPLC-MS analysis is as described in Example 2.
As a result of the UPLC-MS analysis, the signal of the molecular weight corresponding to the N-caprinoyl-amino acid derivative, or N-caprinoyl-amino acid, or N-caprinoyl-peptide was confirmed in the reaction solution containing the enzyme in combination with the amino acid derivative or the D-amino acid or the peptide shown in Table 4 below.

[3] = Synthesis of N-caprinoylamino acid using purified acylamino acid synthetase, UPLC-MS detection; conditions: +ATP
Protocol: 2.0 mL of a reaction solution containing 50 mM Tris-HCl, 5 mM amino acid, 5 mM sodium caprate, 10 mM ATP, 10 mM MgCl2, 1 mM DTT, 50 μg of the purified enzyme, pH 8.0 was incubated at 25° C. for 24 hours. After completion of the reaction, 0.8 mL of a reaction stop solution (1% (v/v) phosphoric acid, 75% (v/v) methanol) was added, and the mixture was filtrated through a filter followed by being subjected to the UPLC-MS analysis to detect a signal of a molecular weight corresponding to an N-caprinoyl amino acid.
A UPLC-MS analysis condition is as follows.
as §1
• Column: ACQUITY UPLC BEH C18 1.7 2.1×100 mm Column (Waters) • Mobile phase A: 0.1% formic acid • Mobile phase B: acetonitrile Gradient
• Flow rate: 0.6 mL/min • Injection amount: 2 μL • Column temperature: 40° C. • Ionization method: ESI-negative
As a result of the UPLC-MS analysis, the signal of the molecular weight corresponding to the N-caprinoyl amino acid was confirmed in the reaction solution combining the enzyme and the amino acid shown in Table 3 below.

B1: AtGH3-10: GH3-10 from Arabidopsis thaliana, His-tagged (protein, listed as Arabidopsis thaliana)
chain: METVEAGHDDVIGWFEHVSENACKVQSETLRRILELNSGVEYLRKWLGTVDVEKMDDYTLETLFTSLVPIVSHADLDPYIQRIADGETSPLLTQEPITVLSLSSGTTEGRQKYVPFTRHSAQTTLQIFRLSAAYRSRFYPIREGGRILEFIYAGKEFKTLGGLTVGTATTHYYASEEFKTKQETTKSFTCSPQEVISGGDFGQCTYCHLLLGLHYSSQVEFVASAFSYTIVQAFSFFEEIWREICADIKEGNLSSRITLPKMRKAVLALIRPNPSLASHIEEICLELETNLGWFGLISKLWPNAKFISSIMTGSMLPYLNKLRHYAGGLPLVSADYGSTESWIGVNVDPHLPPEDVSFAVIPTFSYFEFIPLYRRQNQSDICIDGDFVEDKPVPLSQVKLGQEYELVLTTFTGLYRYRLGDVVEVTSFHKGTPKLSFIYRRKLILTINIDKNTEKDLQRVVDKASQLLSRSTRAEVVDFTSHADVIARPGHYVIYWEIRGEADDKALEECCREMDTAFVDYGYVVSRRMNSIGPLELRVVERGTFGKVAERCVGKCGGLNQFKTPRCTTNSVMLDILNDSTIKRFRSSAYD
modifications: His-tag
notes: GH3-10 from Arabidopsis thaliana, His-tagged
[1]; substrates L-Ala and Capric acid
  signal of molecular weight corresponding to N-acylamino acid: +
[1]; substrates L-Ala and Caproic acid
  signal of molecular weight corresponding to N-acylamino acid: +
[1]; substrates L-Ala and Caprylic acid
  signal of molecular weight corresponding to N-acylamino acid: +
[1]; substrates L-Ala and Lauric acid
  signal of molecular weight corresponding to N-acylamino acid: +
[1]; substrates L-Ala and Linoleic acid
  signal of molecular weight corresponding to N-acylamino acid: −
[1]; substrates L-Ala and Palmitic acid
  signal of molecular weight corresponding to N-acylamino acid: −
[1]; substrates L-Ala and myristic acid
  signal of molecular weight corresponding to N-acylamino acid: +
[1]; substrates L-Lys and Capric acid
  signal of molecular weight corresponding to N-acylamino acid: +
[1]; substrates L-Lys and Caproic acid
  signal of molecular weight corresponding to N-acylamino acid: +
[1]; substrates L-Lys and Caprylic acid
  signal of molecular weight corresponding to N-acylamino acid: +
[1]; substrates L-Lys and Lauric acid
  signal of molecular weight corresponding to N-acylamino acid: +
[1]; substrates L-Lys and Linoleic acid
  signal of molecular weight corresponding to N-acylamino acid: −
[1]; substrates L-Lys and Palmitic acid
  signal of molecular weight corresponding to N-acylamino acid: +
[1]; substrates L-Lys and myristic acid
  signal of molecular weight corresponding to N-acylamino acid: +
[2]; substrates Carnosine and sodium caprate
  signal of molecular weight corresponding to N-caprinoyl compound: −
[2]; substrates D-Ala and sodium caprate
  signal of molecular weight corresponding to N-caprinoyl compound: +
[2]; substrates D-Asp and sodium caprate
  signal of molecular weight corresponding to N-caprinoyl compound: +
[2]; substrates D-Cys and sodium caprate
  signal of molecular weight corresponding to N-caprinoyl compound: +
[2]; substrates D-Glu and sodium caprate
  signal of molecular weight corresponding to N-caprinoyl compound: +
[2]; substrates D-Ile and sodium caprate
  signal of molecular weight corresponding to N-caprinoyl compound: −
[2]; substrates D-Lys and sodium caprate
  signal of molecular weight corresponding to N-caprinoyl compound: −
[2]; substrates L-Asp-L-Phe and sodium caprate
  signal of molecular weight corresponding to N-caprinoyl compound: −
[2]; substrates L-Gly-L-Gly and sodium caprate
  signal of molecular weight corresponding to N-caprinoyl compound: +
[2]; substrates Sarcosine and sodium caprate
  signal of molecular weight corresponding to N-caprinoyl compound: −
[2]; substrates Taurine and sodium caprate
  signal of molecular weight corresponding to N-caprinoyl compound: +
[3]; substrates GABA and sodium caprate
  signal of molecular weight corresponding to N-caprinoyl amino acid: +
[3]; substrates Gly and sodium caprate
  signal of molecular weight corresponding to N-caprinoyl amino acid: +
[3]; substrates L-Ala and sodium caprate
  signal of molecular weight corresponding to N-caprinoyl amino acid: +
[3]; substrates L-Arg and sodium caprate
  signal of molecular weight corresponding to N-caprinoyl amino acid: +
[3]; substrates L-Asn and sodium caprate
  signal of molecular weight corresponding to N-caprinoyl amino acid: +
[3]; substrates L-Asp and sodium caprate
  signal of molecular weight corresponding to N-caprinoyl amino acid: +
[3]; substrates L-Cys and sodium caprate
  signal of molecular weight corresponding to N-caprinoyl amino acid: −
[3]; substrates L-Gln and sodium caprate
  signal of molecular weight corresponding to N-caprinoyl amino acid: +
[3]; substrates L-Glu and sodium caprate
  signal of molecular weight corresponding to N-caprinoyl amino acid: −
[3]; substrates L-His and sodium caprate
  signal of molecular weight corresponding to N-caprinoyl amino acid: +
[3]; substrates L-Ile and sodium caprate
  signal of molecular weight corresponding to N-caprinoyl amino acid: +
[3]; substrates L-Leu and sodium caprate
  signal of molecular weight corresponding to N-caprinoyl amino acid: +
[3]; substrates L-Lys and sodium caprate
  signal of molecular weight corresponding to N-caprinoyl amino acid: +
[3]; substrates L-Met and sodium caprate
  signal of molecular weight corresponding to N-caprinoyl amino acid: +
[3]; substrates L-Phe and sodium caprate
  signal of molecular weight corresponding to N-caprinoyl amino acid: +
[3]; substrates L-Pro and sodium caprate
  signal of molecular weight corresponding to N-caprinoyl amino acid: +
[3]; substrates L-Ser and sodium caprate
  signal of molecular weight corresponding to N-caprinoyl amino acid: +
[3]; substrates L-Thr and sodium caprate
  signal of molecular weight corresponding to N-caprinoyl amino acid: +
[3]; substrates L-Trp and sodium caprate
  signal of molecular weight corresponding to N-caprinoyl amino acid: +
[3]; substrates L-Tyr and sodium caprate
  signal of molecular weight corresponding to N-caprinoyl amino acid: +
[3]; substrates L-Val and sodium caprate
  signal of molecular weight corresponding to N-caprinoyl amino acid: +
[3]; substrates β-Ala and sodium caprate
  signal of molecular weight corresponding to N-caprinoyl amino acid: +

From patent US12281340B2, “Method of producing N-acyl-amino group-containing compound” (AJINOMOTO CO., INC., priority 2018, dated 2025)
